Test results as given in patent US6861508B2, “Transcriptional intermediary factor-2” (Institut National de la Sante et de la Recherche Medicale, priority 1996, dated 2005).
Residue numbers refer to the chain shown, from its start. Values belong to the molecule of their own block, whether it stands above or below them.

How the values were obtained:
GAL4 reporter = test: GAL4 DBD-TIF2 fusion CAT reporter transactivation assay; format: cell-based; settings: Cos-1 and/or HeLa cells
Procedure: (a) HeLa cells were cotransfected with 1 μg (17m)5-βG-CAT and 10 μg GAL(1-147) or 1,3 and 10 μg GAL(1-147)-TIF2.1, respectively.
(c) Analysis of the transcriptional activity of GAL-TIF2 fusion proteins. Cos-1 and HeLa cells were transfected with 3 lag of plasmids expressing different regions of TIF2 fised to the DNA-binding domain of the yeast transcription factor GALA together with 1 μg of the (7m)5-G-CAT reporterplasmid. CAT assays were performed as described (Bocquel, M. T. et al., Nucl Acids Res. 17:2581-2595 (1989)). Quantitative data on CAT reporter expression were obtained either by phosphoimager analysis (BAS2000, Fuji) of ^14C-labeled CAT reaction products separated by thin-layer chromatography, or using the CAT ELISA Kit (Boehringer Mannheim). In all cases, CAT activities were normalized to the β-galactosidase concentrations resulting from cotransfection of 1 μg of pCMVPGal (gift from T. Lerouge) as internal control. Fold inductions above the GAL4 DBD value are indicated. The mean and standard deviation of at least three experiments are shown. A representative Western blot, illustrating the expression levels of the GAL4-TIF2 fusion proteins, expressed from 10 μg of the corresponding expression vectors, is shown on the left.
(b) Transcriptional activation of TIF2 AF-1 mutants. Cos-1 and HeLa cells were cotransfected with 3 μg of plasmids expressing different mutants of the TIF2 AF-1 fused to the DNA-binding domain of the yeast transcription factor GAL4 together with 1 μg of the (17m)5-G-CAT reporter plasmid. Fold inductions above the activation seen with the GAL4 DBD alone are indicated. The values represent the mean of at least three experiments.
(a) Transcriptional activation by TIF2.13 and TIF2.13 mutants. Cos-1 and HeLa cells were cotransfected with 3 μg of plasmids expressing the TIF2.13 region and the indicated TIF2.13 mutants fused to the DNA-binding domain of the yeast transcription factor GALA together with 1 μg of the (17m)5-G-CAT reporter plasmid. Fold inductions above the GAL4 DBD 1-fold value are indicated. The mean and standard deviation obtained from at least four experiments are shown. The expression levels of the GAL4-TIF2.13 fusion proteins were confirmed by western blotting (data not shown).
Transient transfections of HeLa and Cos-1 cells were performed as described (Gronemeyer et al., (1987); Bocquel, M. T. et al., Nucl. Acids Res. 17:2581-2595 (1989)).

GAL-CBP = test: two hybrid analysis of CBP-TIF2 interaction in HeLa cells; format: cell-based
Procedure: (e) Two hybrid analysis of the CBP-TIF2 interaction in mammalian cells in vivo. HeLa cells were transfected with 0.2 μg of the GAL4 or GALA-CBP (expressing CBP residues 1872 to 2165) expression vectors together with 0.2 μg of the VP16 or VPI6-TF2 expression vectors in the presence of 2 μg of (17m)5-TATA-CAT reporter plasmid. Fold induction relative to the GAL-CBP activity is indicated. The mean of three experiments is shown; in each case, values varied by less than ±20%.
HeLa cells were transfected with 0.2 μg of GAL4 or GAL-CBP expression vectors together with 0.2 μg of VP16 or VP16-TIF2.13 expression vectors in the presence of 1 μg of (17m)5-TATA-CAT reporter plasmid. Data are represented as fold induction of the activity seen with GAL-CBP alone. The mean and standard, deviation obtained from ten experiments are shown. The expression levels were confirmed by Western blotting with antibodies directed against GAL4 DBD and VP16 AAD (data not shown).
Furthermore, it was reported that SRC-1, which belongs to the same gene family as TIF2, interacts with CBP and p300 (Kamei, Y. et al., Cell 85:403-414 (1996); Yao, T. P. et al., Proc. Natl. Acad. Sci. USA 93:10626-10631 (1996); Hanstein, B., et al., Proc. Natl. Acad Sci USA 93:11540-11545 (1996)). Using GST-fusion protein-based interaction and animal cell-based two hybrid assays, we therefore analyzed whether TIF2 could also interact with CBP. […] A GST-CBP fusion protein was expressed in E. coli and used for puU-down assays with in vitro translated TIF2 polypeptides (FIG. 7d).

[1] = biological target: T1, (His)6-TIF2.1, E. coli-expressed purified recombinant TIF2.1 (human, UniProt Q15596 624-1287); test: GST interaction assay (not shown)
T1 construct: also called His-tagged TIF2.1; purified TIF2.1 protein; not shown: (His)6 tag of pET15b
T1 sequence: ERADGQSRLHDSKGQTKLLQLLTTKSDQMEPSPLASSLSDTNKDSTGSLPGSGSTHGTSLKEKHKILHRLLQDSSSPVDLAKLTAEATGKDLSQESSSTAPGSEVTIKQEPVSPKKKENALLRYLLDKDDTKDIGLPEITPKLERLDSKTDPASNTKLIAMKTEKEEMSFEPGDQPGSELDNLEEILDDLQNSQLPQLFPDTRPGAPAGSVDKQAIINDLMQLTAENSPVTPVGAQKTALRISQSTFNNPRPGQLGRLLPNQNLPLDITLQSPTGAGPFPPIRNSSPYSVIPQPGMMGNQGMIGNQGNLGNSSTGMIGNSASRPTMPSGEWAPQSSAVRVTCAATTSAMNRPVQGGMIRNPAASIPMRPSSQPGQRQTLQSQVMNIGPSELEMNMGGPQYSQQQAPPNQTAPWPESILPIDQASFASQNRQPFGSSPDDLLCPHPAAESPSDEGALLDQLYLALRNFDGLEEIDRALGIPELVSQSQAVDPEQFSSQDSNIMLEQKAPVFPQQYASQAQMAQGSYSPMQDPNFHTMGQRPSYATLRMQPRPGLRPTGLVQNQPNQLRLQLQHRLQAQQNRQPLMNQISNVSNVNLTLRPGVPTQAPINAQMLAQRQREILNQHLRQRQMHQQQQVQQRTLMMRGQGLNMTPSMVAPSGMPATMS

[2] = biological target: T2, GST-hRARα(DEF) (pGEX2T-hRARα(DEF), amino acids 153-462) (human, UniProt P10276 153-462); test: GST pull-down with 35S in-vitro-translated TIF2 polypeptides (FIG. 7a-b)
T2 construct: range 153-462; Bacterially produced; also called GST-RAR; GST-RARα(DEF); not shown: glutathione-S-transferase (GST) of pGEX2T (Pharmacia)
T2 sequence (looked up): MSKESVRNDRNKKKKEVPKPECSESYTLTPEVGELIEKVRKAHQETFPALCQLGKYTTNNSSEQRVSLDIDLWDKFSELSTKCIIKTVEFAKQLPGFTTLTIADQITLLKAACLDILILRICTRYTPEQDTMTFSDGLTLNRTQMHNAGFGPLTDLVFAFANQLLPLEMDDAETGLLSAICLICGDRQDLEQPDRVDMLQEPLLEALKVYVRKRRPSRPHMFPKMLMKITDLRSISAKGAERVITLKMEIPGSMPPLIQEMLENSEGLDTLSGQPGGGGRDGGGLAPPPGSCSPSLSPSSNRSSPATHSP

[3] = biological target: T3, GST-hERα(DEF) (pGEX2T-hERα(DEF), amino acids 282-595) (human, UniProt P03372 282-595); test: as above
T3 construct: range 282-595; Bacterially produced; also used 32P-labelled as Far-Western probe; also called GST-ER; GST-ER(DEF); not shown: glutathione-S-transferase (GST) of pGEX2T (Pharmacia)
T3 sequence (looked up): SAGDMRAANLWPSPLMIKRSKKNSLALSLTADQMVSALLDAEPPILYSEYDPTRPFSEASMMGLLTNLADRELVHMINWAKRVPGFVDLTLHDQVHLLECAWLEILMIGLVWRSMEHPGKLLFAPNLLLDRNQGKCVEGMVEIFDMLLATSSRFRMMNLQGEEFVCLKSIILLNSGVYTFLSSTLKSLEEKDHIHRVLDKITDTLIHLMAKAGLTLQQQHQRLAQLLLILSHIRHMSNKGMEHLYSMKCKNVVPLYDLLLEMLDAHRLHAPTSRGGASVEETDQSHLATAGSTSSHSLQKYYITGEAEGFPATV

[4] = biological target: T2, GST-hRARα(DEF) (pGEX2T-hRARα(DEF), …); test: in vitro GST interaction of TIF2.1 point mutants, with ligand, relative to TIF2.1 wild type
[5] = biological target: T4, GST-mRXRα(DE) (pGEX2T-mRXRα(DE), amino acids 205-467) (mouse, UniProt P28700 205-467); test: as above
T4 construct: range 205-467; also called GST-RXR; GST-RXRα(DE); not shown: glutathione-S-transferase (GST) of pGEX2T (Pharmacia)
T4 sequence (looked up): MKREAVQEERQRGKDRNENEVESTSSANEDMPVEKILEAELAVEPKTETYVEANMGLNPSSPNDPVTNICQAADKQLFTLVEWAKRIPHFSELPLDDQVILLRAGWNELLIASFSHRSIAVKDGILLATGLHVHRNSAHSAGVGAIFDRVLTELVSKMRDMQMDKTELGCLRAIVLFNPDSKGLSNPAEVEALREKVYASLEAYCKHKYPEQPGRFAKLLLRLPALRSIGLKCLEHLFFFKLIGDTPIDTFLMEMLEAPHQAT

B1: TIF2.13: TIF2 fragment Pro1011 to Ser1122 (protein, UniProt Q15596 1011-1122, looked up, fragment)
chain: PSELEMNMGGPQYSQQQAPPNQTAPWPESILPIDQASFASQNRQPFGSSPDDLLCPHPAAESPSDEGALLDQLYLALRNFDGLEEIDRALGIPELVSQSQAVDPEQFSSQDS
transcriptional activation of GAL4 reporter by GAL4 DBD fusion (GAL4 reporter): potent transcriptional activity
interaction with GAL-CBP, two hybrid (GAL-CBP): also interacted with CBP in vivo

binding result [1]: no binding
B2: GST-hTAFII55 (printed hTAFn55) (other, human, UniProt Q15545 1-349, looked up)
chain: MSKSKDDAPHELESQFILRLPPEYASTVRRAVQSGHVNLKDRLTIELHPDGRHGIVRVDRVPLASKLVDLPCVMESLKTIDKKTFYKTADICQMLVSTVDGDLYPPVEEPVASTDPKASKKKDKDKEKKFIWNHGITLPLKNVRKRRFRKTAKKKYIESPDVEKEVKRLLSTDAEAVSTRWEIIAEDETKEAENQGLDISSPGMSGHRQGHDSLEHDELREIFNDLSSSSEDEDETQHQDEEDINIIDTEEDLERQLQDKLNESDEQHQENEGTNQLVMGIQKQIDNMKGKLQETQDRAKRQEDLIMKVENLALKNRFQAVLDELKQKEDREKEQLSSLQEELESLLEK
notes: not shown: glutathione-S-transferase (GST)

binding result [2]: no binding
binding result [3]: no binding
B3: TIF2.12 (TIF2 amino acids 940-1131) (other)
chain: IGNSASRPTMPSGEWAPQSSAVRVTCAATTSAMNRPVQGGMIRNPAASIPMRPSSQPGQRQTLQSQVMNIGPSELEMNMGGPQYSQQQAPPNQTAPWPESILPIDQASFASQNRQPFGSSPDDLLCPHPAAESPSDEGALLDQLYLALRNFDGLEEIDRALGIPELVSQSQAVDPEQFSSQDSNIMLEQKAP
notes: In-vitro-translated

binding result [1]: no binding
B4: GST-hTAFII18 (printed hTAFn18) (other, human, UniProt Q15543 1-124, looked up)
chain: MADEEEDPTFEEENEEIGGGAEGGQGKRKRLFSKELRCMMYGFGDDQNPYTESVDILEDLVIEFITEMTHKAMSIGRQGRVQVEDIVFLIRKDPRKFARVKDLLTMNEELKRARKAFDEANYGS
notes: as for B2

times less efficient in NR interaction than the wild-type TIF2 [4]: 5 times less efficient than wild type
times less efficient in NR interaction than the wild-type TIF2 [5]: 5 times less efficient than wild type
B5: TIF2.1 m13 (LL→AA in NR box motifs I and III) (other)
chain: T1 sequence with L21A, L22A, L125A, L126A
notes: also called single intact NR box II

times less efficient in NR interaction than the wild-type TIF2 [4]: 20 times less efficient than wild type
times less efficient in NR interaction than the wild-type TIF2 [5]: 20 times less efficient than wild type
B6: TIF2.1 m23 (LL→AA in NR box motifs II and III) (other)
chain: T1 sequence with L70A, L71A, L125A, L126A
notes: also called single intact NR box I

binding result [1]: no binding
B7: GST-hTAFII20 (printed hTAFn20) (other, human, UniProt Q16514 1-161, looked up)
chain: MNQFGPSALINLSNFSSIKPEPASTPPQGSMANSTAVVKIPGTPGAGGRLSPENNQVLTKKKLQDLVREVDPNEQLDEDVEEMLLQIADDFIESVVTAACQLARHRKSSTLEVKDVQLHLERQWNMWIPGFGSEEIRPYKKACTTEAHKQRMALIRKTTKK
notes: as for B2
